The values below come from PMC11921806, “Structural characterization and inhibition of the interaction between ch-TOG and TACC3” (The Journal of Cell Biology, 2025).

Data set [1] has as its target T1, TACC3 629–838 (human, UniProt Q9Y6A5 629-838).
T1 construct: human TACC3, TACC domain, residues 629-838; For MST the protein was fluorescently labelled via NHS coupling (NHS Red labelling kit, Nanotemper); Construct from Hood et al., 2013; also called TACC3 TACC domain; TACC3 TD; not shown: His, N-terminal, cleaved; NusA, N-terminal, cleaved
Nature of the data set: pull-down; in vitro co-precipitation; His-NusA-ch-TOG 1817–1957 constructs immobilised on Nickel Sepharose, TACC3 629–838 added; binding of TACC3 resolved by western blot. The conditions noted are these: both partners purified.

Data set [2] has as its target T1, TACC3 629–838. The data set can be described thus: MST; NHS Red labelled TACC domain at 600 nM, H5 peptide 0–400 μM; 20 mM sodium phosphate, 50 mM NaCl, 2 mM DTT, 0.05% Tween, 0.02% NaN3; one-site specific binding model. The conditions noted are these: both partners purified.
A further data set concerns the target T2, ch-TOG 1517–1957 (human, UniProt Q14008 1517-1957).
T2 construct: Construct from Hood et al., 2013; also called C-terminal domain of ch-TOG; not shown: His, N-terminal, cleaved; NusA, N-terminal, cleaved
Nature of the data set: pull-down; in vitro co-precipitation; C-terminal His-tagged Affimers immobilised on Nickel Sepharose, incubated with TACC3 629–838 ∆699–765, ch-TOG 1517–1957 added. The conditions noted are these: both partners purified.

Data set [3] concerns the molecule itself. The data set can be described thus: EPR (CW EPR and DEER); MTSL-labelled TACC3 proteins, 50 μM with 30% glycerol; CW EPR at 120 K, four-pulse DEER at 50 K.

B1: His-NusA-ch-TOG 1817–1957 (domain or fragment)
chain: ASRIDEKSSKAKVNDFLAEIFKKIGSKENTKEGLAELYEYKKKYSDADIEPFLKNSSQFFQSYVERGLRVIEMEREGKGRISTSTGISPQMEVTCVPTPTSTVSSIGNTNGEEVGPSVYLERLKILRQRCGLDNTKQDDRP
notes: not shown: His, N-terminal, kept; NusA, N-terminal, kept
Take B1: the binding result in the data set with TACC3 629–838 [1] was “binds”.

B2: synthetic ch-TOG H5 peptide (residues 1929–1947) (peptide)
peptide: EVGPSVYLERLKILRQRCG
notes: human ch-TOG/CKAP5 helix H5, residues 1929-1947; source: synthetic peptide
For B2, in the data set with TACC3 629–838 [2], the affinity, expressed as Kd, was 17.3 µM.

B3: TACC3 629–838 ∆699–765 (domain or fragment)
chain: not shown
notes: human TACC3 residues 629-838 with residues 699-765 deleted; A version with a C-terminal biotinylated Avi-tag was used for Affimer panning and ELISA; also called TACC3 TD∆; not shown: His, N-terminal, cleaved; NusA, N-terminal, cleaved
On to B3, for which, in the data set with ch-TOG 1517–1957, the binding result is reported as “binds”.

B4: TACC3 MTSL-C662 (domain or fragment)
chain: not shown
modifications: MTSL spin label on C662
notes: human TACC3 residues 629-838 with C749A and C828A; also called TACC3 629–838 C749A, C828A; source: E. coli BL21(DE3)RIL, purified, MTSL-labelled, SEC; not shown: His, N-terminal, cleaved; NusA, N-terminal, cleaved
On to B4, for which the binding result in data set [3] is recorded as “binds”.
